From patent publication US20260374887 (published 2026)

Target: BAFF-R (human, UniProt Q96RJ3)
Test: other, in vitro experiments

BAFF-R, sequence (Q96RJ3 7-71): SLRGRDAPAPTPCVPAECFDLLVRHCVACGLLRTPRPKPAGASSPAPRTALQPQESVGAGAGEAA

B1: ianalumab (VAY736) (antibody, V domains shown)
VH: QVQLQQSGPGLVKPSQTLSLTCAISGDSVSSNSAAWGWIRQSPGRGLEWLGRIYYRSKWYNSYAVSVKSRITINPDTSKNQFSLQLNSVTPEDTAVYYCARYDWVPKIGVFDSWGQGTLVTVSS
VL: DIVLTQSPATLSLSPGERATLSCRASQFISSSYLSWYQQKPGQAPRLLIYGSSSRATGVPARFSGSGSGTDFTLTISSLEPEDFAVYYCQQLYSSPMTFGQGTKVEIKR
A Kd of 0.046 nM was found for B1 in this work.
